# Assay results reported in US12233115B2, “Long-acting parathyroid hormone” (Extend Biosciences, Inc., priority 2022, dated 2025).
# Like-named read-outs stand apart in the source and are kept apart here. Marks after values point to notes of the source that are not given here.
# Assays:
# [1] = Solubility in PBS (A280); assay type: physicochemical
# Protocol: PEG Length and Counterion Affects Solubility: The solubility of the acetate and carbonate salt form of each compound was determined as follows. For EXT611, EXT606, and EXT608, phosphate buffered saline (PBS) was added to each compound to form a saturated solution. Undissolved compound was removed by centrifugation. The concentration of dissolved compound was determined by measuring the absorbance at 280 nm using an extinction coefficient of 18,600 M^−1 cm^−1. For EXT615, EXT616, and EXT617, solubility was limited practically by the high viscosity imparted by the large PEG moieties. Highly viscous drug formulations are difficult to manipulate and require large needle bore sizes that cause increased injection site pain. PBS was added to EXT615, EXT616, and EXT617 incrementally until a solution was obtained that could be successfully pipetted through a pipet tip with a bore of approximately 1 mm diameter (enlarged by removing the end with a razor blade). The concentration of dissolved compound was determined by measuring the absorbance at 280 nm using an extinction coefficient of 18,600 M^−1 cm^−1. […] For EXT608, the acetate salt was 17.6-fold more soluble than the carbonate salt.
# [2] = Repeat dose pharmacokinetics of EXT608 in male and female rats; assay type: in vivo; conditions: rat; for Cmin: 0-24 h; for AUC(0-t): sc, read-out: AUC0-24 h
# Protocol: 21-Day Experiment: EXT608 was formulated in 20 mM sodium acetate pH=5.5 buffer with 0.8% sodium chloride. In a repeat dose toxicokinetic study, groups of 18 rats (9 males+9 females) were subcutaneously dosed daily at a volume of 0.5 ml/kg with either 14.2 μg/kg or 70 μg/kg of EXT608. On Day 21, blood samples (˜0.5 ml) were collected at t=0 (pre-dose), 0.5, 1, 3, 8, 24, 32, 48, and 72 h with each timepoint being collected from one of three cohorts of 3 male and 3 female animals. Each blood sample was collected from the jugular vein into tubes containing K2EDTA and manually inverted several times. Blood samples were kept on wet ice pending centrifugation. Samples were centrifuged (˜2700 g, ˜10 min, ˜5° C.) within 1 hour of collection. Plasma was recovered and divided evenly into duplicate aliquots and frozen. 90-Day Experiment: EXT608 was formulated in 20 mM sodium acetate pH=5.5 buffer with 0.8% sodium chloride and 0.1% Polysorbate 80. In a repeat dose toxicokinetic study, groups of 18 rats (9 males+9 females) were subcutaneously dosed daily at a volume of 0.5 ml/kg with either 1, 3, or 10 μg/kg of EXT608. On Day 90, blood samples (˜0.5 ml) were collected at t=0 (pre-dose), 0.5, 1, 3, 8, 24, 32, 48, and 72 h with each timepoint being collected from one of three cohorts of 3 male and 3 female animals. Plasma was prepared as described above for the 21-Day experiment. […] Group-averaged EXT608 levels as a function of time are shown in FIG. 13 for the last dose administration after either 21 days of daily dosing (14.2 and 70 μg/kg) or 90 days of daily dosing (1, 3, and 10 μg/kg). Surprising, the PK profiles changed as a function of dose level. […] Pharmacokinetic parameters were determined from the plasma concentration versus time data (Table 6) by a non-compartmental extravascular administration model with uniform weighting using Phoenix® WinNonlin® Version 6.4 (Certara L.P. (Pharsight), Princeton, NJ). Pharmacokinetic analysis was performed on data collected from t=0 to 72 h following the last administered dose. […] The Cmax/Cmin ratio represents the peak-to-trough ratio of EXT608 concentration that was observed during the dosing period. […] Without being bound by theory, the low peak-to-trough ratios observed at low doses could be the result of a slower rate of absorption of EXT608 from the subcutaneous space into circulation. A low peak-to-trough ratio is desirable in many therapeutic applications, including parathyroid hormone replacement therapy. It allows dosing at levels close to the ideal efficacious dose without going too high where toxicity might be observed or too low where the efficacy is reduced.
# [3] = Single dose pharmacokinetics of EXT608 in healthy humans; assay type: in vivo; conditions: human
# Protocol: EXT608 vastly improves the serum half-life in humans in a dose-dependent manner. Sterile EXT608 formulations were prepared at a concentration of 0.4 mg/ml in 10 mM sodium acetate buffer pH=5.5, 4.5% mannitol, and 0.25% Polysorbate 80 and filled into sterile vials. Healthy human participants were administered EXT608 by subcutaneous injection in the abdomen at doses of 0, 36, 108, 216, or 324 micrograms (n=3).
# Pharmacokinetics: 4 ml Blood samples were collected at −24, −1, 0.5, 1, 2, 4, 8, 12, 18, 24, 36, 48, and 72 hours relative to dosing as well as on Days 5, 7, 14, 21, and 28 after dosing. They were processed to K2EDTA plasma. […] Pharmacokinetic parameters were calculated for each individual using Kinetica software (ThermoFisher Scientific, Waltham, MA), and the parameter means and standard deviations are given in Table 12. For the lower doses (36, 108, and 216 μg), an accurate elimination half-life (t1/2) could not be determined because of limited timepoints with EXT608 concentrations above the lower limit of quantitation.
# [4] = in vivo, 1 ug/kg, daily SC 1 μg/kg, 90 days
# [5] = in vivo, 36 ug, single 36 μg SC
# [6] = in vivo, 108 ug, single 108 μg SC
# [7] = in vivo, 216 ug, single 216 μg SC
# [8] = in vivo, 324 ug, single 324 μg SC
smiles,measurement,setting,value
C=C1CC[C@H](OCCCNC(=O)CCOCCOCCOCCOCCOCCOCCOCCOCCOCCOCCOCCOCCOCCOCCOCCOCCOCCOCCOCCOCCOCCOCCOCCOCCOCCOCCOCCOCCOCCOCCOCCOCCOCCOCCOCCOCCNC(=O)CCN2C(=O)CC(SC[C@H](NC(=O)[C@H](Cc3ccccc3)NC(=O)[C@H](CC(N)=O)NC(=O)[C@H](Cc3c[nH]cn3)NC(=O)[C@@H](NC(=O)[C@H](CC(=O)O)NC(=O)[C@H](CCC(N)=O)NC(=O)[C@H](CC(C)C)NC(=O)[C@H](CCCCN)NC(=O)[C@H](CCCCN)NC(=O)[C@H](CCCNC(=N)N)NC(=O)[C@H](CC(C)C)NC(=O)[C@H](Cc3c[nH]c4ccccc34)NC(=O)[C@H](CCC(=O)O)NC(=O)[C@@H](NC(=O)[C@H](CCCNC(=N)N)NC(=O)[C@H](CCC(=O)O)NC(=O)[C@H](CCSC)NC(=O)[C@H](CO)NC(=O)[C@H](CC(N)=O)NC(=O)[C@H](CC(C)C)NC(=O)[C@H](Cc3c[nH]cn3)NC(=O)[C@H](CCCCN)NC(=O)CNC(=O)[C@H](CC(C)C)NC(=O)[C@H](CC(N)=O)NC(=O)[C@H](Cc3c[nH]cn3)NC(=O)[C@H](CCSC)NC(=O)[C@H](CC(C)C)NC(=O)[C@H](CCC(N)=O)NC(=O)[C@@H](NC(=O)[C@H](CCC(=O)O)NC(=O)[C@H](CO)NC(=O)[C@@H](NC(=O)[C@@H](N)CO)C(C)C)[C@@H](C)CC)C(C)C)C(C)C)C(N)=O)C2=O)C/C1=C/C=C1\CCC[C@]2(C)[C@@H]([C@H](C)CCCC(C)(C)O)CC[C@@H]12 (stereo partly drawn) [EXT608],"fold more soluble, acetate salt vs carbonate salt",[1],17.6 fold
same,solubility,"[1]; acetate salt, read-out: Solubility as Acetate",9.67 mM
same,solubility,"[1]; carbonate salt, read-out: Solubility as Carbonate",0.55 mM
same,Tmax,[2]; [4],1 h
same,half-life,"[2]; in vivo, repeated daily SC dosing, across doses 1-70 μg/kg, read-out: t1/2 of elimination",10.4 to 13.8 h
same,Cmin,"[2]; daily SC 1 μg/kg, 90 days",0.299 ng/mL
same,Cmin,"[2]; daily SC 3 μg/kg, 90 days",0.875 ng/mL
same,Cmin,"[2]; daily SC 10 μg/kg, 90 days",1.56 ng/mL
same,Cmin,"[2]; daily SC 14.2 μg/kg, 21 days",2.35 ng/mL
same,Cmin,"[2]; daily SC 70 μg/kg, 21 days",5.92 ng/mL
same,AUC(0-t),[2]; [4],11.2 ng·h/mL
same,AUC(0-t),"[2]; in vivo, 3 ug/kg, daily SC 3 μg/kg, 90 days",29.9 ng·h/mL
same,AUC(0-t),"[2]; in vivo, 10 ug/kg, daily SC 10 μg/kg, 90 days",93.2 ng·h/mL
same,AUC(0-t),"[2]; in vivo, 14.2 ug/kg, daily SC 14.2 μg/kg, 21 days",149 ng·h/mL
same,AUC(0-t),"[2]; in vivo, 70 ug/kg, daily SC 70 μg/kg, 21 days",875 ng·h/mL
same,tlast,[3]; single 36 μg SC,24 h
same,tlast,"[3]; single 108 μg SC, 48 h (n = 1) or 72 h (n = 2)",48/72^a
same,tlast,[3]; single 216 μg SC,48/72/120
same,tlast,[3]; single 324 μg SC,168 h
same,AUC(0-t),[3]; [5],5.9 ± 2.7 ng·h/mL
same,Cmax,[3]; [5],0.49 ± 0.27 ng/mL
same,Tmax,[3]; [5],3.3 ± 1.2 h
same,AUC(0-t),[3]; [6],29.2 ± 8.4 ng·h/mL
same,Cmax,[3]; [6],1.2 ± 0.3 ng/mL
same,Tmax,[3]; [6],5.3 ± 2.3 h
same,AUC(0-t),[3]; [7],41.7 ± 17.4 ng·h/mL
same,Cmax,[3]; [7],1.3 ± 0.5 ng/mL
same,Tmax,[3]; [7],4 h
same,AUC(0-inf),[3]; [8],151 ± 16 ng·h/mL
same,AUC(0-t),[3]; [8],118 ± 11 ng·h/mL
same,Cmax,[3]; [8],5 ± 2 ng/mL
same,MRT,[3]; [8],105 ± 18 h
same,Tmax,[3]; [8],2.7 ± 1.2 h
same,half-life,[3]; [8],90 ± 13 h
same,Vd/F,"[3]; in vivo, 324 ug, single 324 μg SC, read-out: VZ/F",280 ± 42 L
same,CL/F,"[3]; plasma, 324 ug, single 324 μg SC",36.7 mL/min
